This is an account of results in patent US7838266B2, “Proaerolysin containing protease activation sequences and methods of use for treatment of prostate cancer” (University of Victoria Innovation and Development …, priority 2001, dated 2010).

For data set [1], the system named is E14 mouse T-cell lymphoma cells (ATCC TIB-39). The data set is described as follows: In vitro toxicity, MTS/PMS cell viability assay. It is filed as cell-based. The note with it: 4 hours at 37° C., 1×10^−13 M-1×10^−7M toxin, FIG. 3; read-out: LC50 (the source's name). As to the method:
To determine in vitro toxicity, a cell viability assay was performed as follows. E14 mouse T-cell lymphoma cells (ATCC TIB-39) were cultured at 10^+5 cells per well in MTS/PMS Cell Titer 96 (Promega). […] Cell viability was subsequently determined by reading the plate on a plate reader, as directed by the manufacturer of the MTS/PMS kit.

Data set [2] has as its system mice. The data set is described as follows: In vivo toxicity after single intravenous injection. The procedure: To determine in vivo toxicity, proaerolysin variants were administered to mice intravenously.
The test system of data set [3] is human LNCaP prostate cancer xenografts which produce PSA. The data set can be described thus: Intratumoral injection into PSA-producing LNCaP xenografts. It is filed as in vivo. The settings on record: nude mice. As to the method: The percent of tumor within sample was determined by calculating the ratio of viable tumor to total tumor area following image analysis of thin tumor sections.

For data set [4], the target named is PSA (Homo sapiens, UniProt P07288). The settings on record: cited from earlier work; for Kcat / Km: aminomethyl coumarin labeled peptides, 50 mM Tris, 0.1 M NaCl, pH 7.8.

No end group written: not given here.

PSA, sequence (P07288 25-261): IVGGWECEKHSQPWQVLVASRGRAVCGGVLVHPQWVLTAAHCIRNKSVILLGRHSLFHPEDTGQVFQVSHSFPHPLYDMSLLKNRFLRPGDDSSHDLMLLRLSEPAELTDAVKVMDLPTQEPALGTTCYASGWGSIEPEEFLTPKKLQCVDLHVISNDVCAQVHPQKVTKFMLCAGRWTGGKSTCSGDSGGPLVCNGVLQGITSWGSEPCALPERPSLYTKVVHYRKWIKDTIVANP

Wild-type proaerolysin: the CC50 in data set [1] stood at 0.15 nM. For the same substance, in data set [2] (intravenous, 1 μg), the “lethality after dose of 1 μg” value was “caused death within one hour”. In data set [2] (single IV injection, total dose), the “LD100 at 24 hours (dose that kills 100% of animals within 24 hours)” value was found to be 0.1 µg. Besides, the “antitumor effect against LNCaP xenografts” value in data set [3] is “minimal effect”.
Regarding “LGGSSQL (also: fluorescently labeled (aminomethyl coumarin); listed as Homo sapiens) [LGGSSQL (19), PSA substrate peptide]”, in data set [4], the Kcat is 0.0037 s⁻¹; the Km – broadly, the substrate concentration at which the rate is half of its maximum – was 900 µM; the “efficiency and specificity of hydrolysis by PSA” value (shortened to “efficiency and specificity”) is recorded as “not efficient, but were specifically hydrolyzed by PSA”.
Consider “KGISSQY (also: fluorescently labeled (aminomethyl coumarin); listed as Homo sapiens) [KGISSQY (15), PSA substrate peptide]”, for which, in data set [4], the Kcat was 0.043 s⁻¹; the Km was 160 µM; the “efficiency and specificity” value is listed as “efficiently but not specifically hydrolyzed by PSA”.
On to “ATKSKQH (also: fluorescently labeled (aminomethyl coumarin); listed as Homo sapiens) [ATKSKQH (17), PSA substrate peptide]”, for which, in data set [4], the Kcat was 0.0091 s⁻¹; the Km was 1310 µM; the “efficiency and specificity” value is “not efficient, but were specifically hydrolyzed by PSA”.
“KGLSSQC (also: fluorescently labeled (aminomethyl coumarin); listed as Homo sapiens) [KGLSSQC (18), PSA substrate peptide]”: in data set [4], the Kcat was 0.0017 s⁻¹ and the Km was 300 µM.
With “SRKSQQY (also: fluorescently labeled (aminomethyl coumarin); listed as Homo sapiens) [SRKSQQY (16), PSA substrate peptide]”, in data set [4], the Kcat is 0.023 s⁻¹; the Km is 90 µM; the “efficiency and specificity” value is on record as “efficiently but not specifically hydrolyzed by PSA”.
With “EHSSKLQ (also: fluorescently labeled (aminomethyl coumarin); listed as Homo sapiens) [EHSSKLQ (20), PSA substrate peptide]”, in data set [4], the Kcat was 0.012 s⁻¹ and the Km was 1160 µM.
On to “SKLQ (also: fluorescently labeled (aminomethyl coumarin); listed as Homo sapiens) [SKLQ (21), PSA substrate peptide]”, for which, in data set [4], the Kcat was 0.020 s⁻¹ and the Km is 813 µM.
Turning to “HSSKLQ (listed as Homo Sapiens) [HSSKLQ (5), PSA substrate peptide]”, in data set [4], the Kcat is 0.011 s⁻¹ and the Km is 470 µM.
